# Results: paper PMC10600506, “A potent and broad‐spectrum neutralizing nanobody for SARS‐CoV‐2 viruses, including all major Omicron strains” (MedComm, 2023)
# B1: Nb26 (VHH)
# VHH: AVQLQASGGGFVQPGGSLRLSCAASGNYYPFTFMGWFRQAPGKEREFVSAIVTDYNKNYYADSVKGRFTISRDNSKNTVYLQMNSLRAEDTATYYCAYQDHSLIVESSGHMYWGQGTQVTVSS
# B2: Nb8 (VHH)
# VHH: AVQLQASGGGFVQPGGSLRLSCAASGILGTNTWMGWFRQAPGKEREFVSAINYWTEPEYYADSVKGRFTISRDNSKNTVYLQMNSLRAEDTATYYCAQQNMDLNFDVFAWEYWGQGTQVTVSS
# B3: Nb24 (VHH)
# VHH: AVQLQASGGGFVQPGGSLRLSCAASGHWPWTGFMGWFRQAPGKEREFVSAIVEYGWPTYYADSVKGRFTISRDNSKNTVYLQMNSLRAEDTATYYCAIAGLIAPEFEQMPVYWGQGTQVTVSS
# Biological target: SARS-CoV-2 Omicron BA.1 Spike receptor-binding domain (SARS-CoV-2 Omicron BA.1, strain, biotin on the Avi tag (for phage screening and BLI); not biotinylated for crystallisation)
row,Binder,binding result
1,B1,binds
2,B2,binds
3,B3,binds
